Measurements reported in US20060263354A1 (published 2006).

Biological target: mature GDF8 (UniProt O14793 267-375)
Experiment: BIAcore

Chain of mature GDF8 (O14793 267-375): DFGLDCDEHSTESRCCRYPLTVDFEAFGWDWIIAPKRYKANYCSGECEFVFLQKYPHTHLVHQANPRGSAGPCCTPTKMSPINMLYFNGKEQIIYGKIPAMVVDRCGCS

Row | Binder | Kd [nM]
1 | 2-43-1 (antibody, V domains shown) VH: EVQLLESGGGLVQPGGSLRLSCAASGFTFSSYAMSWVRQAPGKGLEWVSAISGSGGSTFYADSVTGRFTISRDNSKNTLFLQLNSLRAEDTAVYHCAKDGRFNWNYGASDIWGQGTMVTVSS VL: EIVMTQSPATLSVSPGERATLSCRTSQSVSSNLAWYQQKPGQAPRLLIYGASTRATGIPARFSGSGSGTEFTLTISSLQSEDFAVYYCQQYNNWPLTFGGGTKVEIKR | 1.5
2 | 1-257-1 (antibody, V domains shown) VH: EVQLVESGGGLVKPGGSLRLSCAASGFTFSSYSMNWVRQAPGKGLEWVSSISSSSSYIYYADSVKGRFTISRDNAKNSLYLQMNSLRAEDTAVYYCARDRGYYYGMDVWGQGTTVTVSS VL: DIQMTQSPSSLSASVGDRVTLTCRASQGIRNALGWYQQKPGKAPKRLIYGASSLQSGVPSRFSGSGSGTEFTLTISSLQPEDFATYYCLQHNSYPFTFGPGTKVDIKR | 0.16
3 | 1-314-1 (antibody, V domains shown) VH: EVQLVESGGGLVKPGGSLRLSCAASGFTFSSYSMNWVRQAPGKGLEWVSSISSSSSYIYYADSVKGRFTISRDNAKNSLYLQMNSLRAEDTTVYYCARDRGYLYGMDVWGQGTTVTVSS VL: DIQMTQSPSSLSASVGDRVTITCRASQAIRNDLGWYQQKPGKAPKRLIYAASSLQSGVPSRFSGSGSGTEFTLTISSLQPEDFATYYCLQHNSYPRTFGQGTKVEIKR | 0.11
4 | 1-116-1 (antibody, V domains shown) VH: EVQLVESGGGLVKPGGSLRLSCAASGFTFSSYSMNWVRQAPGKGLEWVSSISSSSSYIYYADSVKGRFTISRDNAKNSLYLQMNSLRAEDTAVYYCARDRGYSYGLDYWGQGTLVTVSS VL: DIQMTQSPSSLSASVGDRVTITCRASQGIRNALGWYQQKPGKAPQRLIYAASSLQSGVPSRFSGSGSGTEFTLTISSLQPEDFATYYCLQHNSYPRTFGQGTKVEIKR | 0.012
5 | 1-268-1 (antibody, V domains shown) VH: EVQLVESGGGLVKPGGSLRLSCAASGFTFSSYSMNWVRQAPGKGLEWVSSISSSSSYIYYADSVKGRFTISRDNAKNSLYLQMNSLRAEDTAVYYCARDRGSYFLFDYWGQGTLVTVSS VL: DMQMTQSPSSLSASVGDRVTITCRASQGIRNDLGWYQQKPGKAPKRLIYGASSLQSGVPSRFSGSGSGTEFTLTISSLQPEDSATYYCLQHNSYPLTFGGGTKVEIKR | 0.24
6 | 1-66-1 (antibody, V domains shown) VH: EVQLVESGGGLVKPGGSLRLSCAASGFTFSSYSMNWVRQAPGKGLEWVSSISSSSSYIYYADSVKGRFTISRDNAKNSLYLQMNSLRAEDTAVYYCARDRGYSYGLDYWGQGTLVTVSS VL: DIQMTQSPSSLSASVGDRVTITCRASQGIRNDLGWYQQKPGKAPKRLIYAASSLQSGVPSRFSGSGSGTEFTLTISSLQPEDFATYYCLQLNSYPFTFGPGTKVDIKR | 0.083
7 | 1-136-3 (antibody, V domains shown) VH: EVQLVESGGGLVKPGGSLRLSCAASGFTFSSYSMNWVRQAPGKGLEWVSSISSSSSYIYYADSVKGRFTISRDNAKNSLYLQMNSLRAEDTAVYYCARDRGYSYGIDYWGQGTLVTVSS VL: DIQMTQSPSSLSASVGDRVTITCRASQGIRNALGWYQQKPGKAPKRLIYAASSLQSGVPSRFSGSGSGTEFTLTISSLQPEDFATYYCLQHNSYPRTFGQGTKVEIKR | 0.043
8 | 2-112-1 (antibody, V domains shown) VH: EVQLLESGGGLIQPGGSLRLSCAASGFTFSSFAMSWVRQAPGKGLEWVSTISGSGGYTFYADSVKGRFTISRDNSKNTLYLQMNSLRAEDTAVYYCAKDGRYNWNYGAFDIWGQGTMVTVSS VL: EIVMTQSPATLSVSPGERATLSCRASQSVSSNLAWYQQKPGQAPRLLIYGASTRATGFPARFSGSGSGTEFTLTISSLQSEDFAIYYCQQYNNWPLTFGGGTKVEIKR | 0.011
9 | 2-177-1 (antibody, V domains shown) VH: EVQLLESGGGLIQPGGSLRLSCAASGFTFSSFAMSWVRQAPGKGLEWVSTISGSGGSTYYADFVKGRFTISRDNSKNTLYLQMNSLRAEDTAVYYCAKDGRYNWNYGAFDIWGQGTMVTVSS VL: EIVMTQSPATLSVSPGERATLSCRASQSVRSNLAWFQQKPGQAPRLLIYGASTRATGIPARFSGSGSGTEFTLTISSLQSEDFAVYYCQQYNNWPLTFGGGTKVEIKR | 0.89
